In patent US20200392230A1 (QLB BIOTHERAPEUTICS, published 2020) one finds binding result and EC50 data, which are given here for three molecules.

Experiment [1] addresses T1, CD20 (UniProt P11836 1-297, limits assumed).
T1 construct: whole, on cells; also called CD20 on Raji cells; CD20 on Daudi cells
T1 sequence (looked up): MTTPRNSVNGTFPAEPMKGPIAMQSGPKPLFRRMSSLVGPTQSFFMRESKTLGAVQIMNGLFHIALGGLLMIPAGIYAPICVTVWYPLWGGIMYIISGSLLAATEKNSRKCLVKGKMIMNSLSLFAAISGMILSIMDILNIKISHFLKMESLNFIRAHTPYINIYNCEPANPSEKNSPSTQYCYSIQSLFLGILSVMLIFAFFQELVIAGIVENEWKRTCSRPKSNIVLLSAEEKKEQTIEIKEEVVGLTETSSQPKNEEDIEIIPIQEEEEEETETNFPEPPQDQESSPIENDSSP
Put plainly: FACS, cell surface binding on Raji cells. As to the method: (§1) After washing in phosphate buffered saline (PBS), fluorescence conjugated secondary antibodies were added to the cell mixture. The stained cells were analyzed in an LSR II FACS machine (BD Biosciences). Mean fluorescence intensity (MFI) was used to indicate the binding strength of the tested antibodies.
On the technique in general: Flow cytometry measures light scatter and fluorescence of single cells or particles in a stream.

Experiment [2] addresses T2, CD3 (UniProt P07766 23-207).
T2 construct: whole, on cells; In the functional assays CD3 stood on engineered effector cells or on T cells of human PBMCs; also called CD3 on Jurkat cells; TCR/CD3 complex
Put plainly: FACS, cell surface binding on Jurkat cells (CD3+), fluorescent secondary antibody, MFI. As for the experimental part: as §1

T2 sequence (P07766 23-207): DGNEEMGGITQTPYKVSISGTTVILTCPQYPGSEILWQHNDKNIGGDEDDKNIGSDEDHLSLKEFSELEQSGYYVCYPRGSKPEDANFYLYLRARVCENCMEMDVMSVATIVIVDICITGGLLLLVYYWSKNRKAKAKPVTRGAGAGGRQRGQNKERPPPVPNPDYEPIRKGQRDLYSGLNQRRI

B1: QLB1005-0003 (bispecific antibody)
chain 1: EVQLVESGGGLVQPGGSLKLSCAASGFTFNTYAMNWVRQASGKGLEWVARIRSKYNNYATYYADSVKDRFTISRDDSKNTLYLQMNSLKTEDTAVYYCVRHGNFGNSYVSWFAYWGQGTLVTVSSGGGGSGGGGSGGGGSQAVVTQEPSLTVSPGGTVTLTCRSSTGAVTTSNYANWVQQKPGQAPRGLIGGTNKRAPGVPARFSGSLLGDKAALTLSGAQPEDEAEYYCALWYSNLWVFGTGTKVTVLGGGGSASTKGPSVFPLAPSSKSTSGGTAALGCLVKDYFPEPVTVSWNSGALTSGVHTFPAVLQSSGLYELVSVVTVPSSSLGTQTYICNVNHKPSNTKVDKKVEPKSC
chain 2: QVQLVQSGAEVKKPGASVKVSCKASGYTFTSYNMHWVRQAPGQGLEWIGAIYPGNGDTSYNQKFKGKATLTADKSTSTAYMELSSLRSEDTAVYYCARSTYYGGDWYFNVWGQGTLVTVSSGGGGSGGGGSGGGGSQIVLTQSPATLSLSPGERATLSCRASSSVSYIHWFQQKPGQAPRPWIYATSNLASGVPARFSGSGSGTDYTLTISSLEPEDFAVYYCQQWTSNPPTFGQGTKVEIKGGGGSRTVAAPSVFIFPPSDEQLKSGTASVVCLLNNFYPREAKVQWKVDNALQSGNSQESVTEQDSKDSTYSLLSSLTLSKADYEKHKVYACEVTHQGLSSPVTKSFNRGEC
notes: NCI/NIH CH1-CK stabilized Fab format; the CH1 and CK domains form a heterodimer via a disulphide bond; also called anti-CD3×CD20 BsAb; Fab format (VH-VL-CH1/VH-VL-CK)
In the case of B1, the binding result in experiment [1] is “binds”.

B2: QLB1005-0001 (bispecific antibody)
chain 1: QAVVTQEPSLTVSPGGTVTLTCRSSTGAVTTSNYANWVQQKPGQAPRGLIGGTNKRAPGVPARFSGSLLGDKAALTLSGAQPEDEAEYYCALWYSNLWVFGTGTKVTVLGGGGSGGGGSGGGGSEVQLVESGGGLVQPGGSLKLSCAASGFTFNTYAMNWVRQASGKGLEWVARIRSKYNNYATYYADSVKDRFTISRDDSKNTLYLQMNSLKTEDTAVYYCVRHGNFGNSYVSWFAYWGQGTLVTVSSGGGGSASTKGPSVFPLAPSSKSTSGGTAALGCLVKDYFPEPVTVSWNSGALTSGVHTFPAVLQSSGLYELVSVVTVPSSSLGTQTYICNVNHKPSNTKVDKKVEPKSC
chain 2: QIVLTQSPATLSLSPGERATLSCRASSSVSYIHWFQQKPGQAPRPWIYATSNLASGVPARFSGSGSGTDYTLTISSLEPEDFAVYYCQQWTSNPPTFGQGTKVEIKGGGGSGGGGSGGGGSQVQLVQSGAEVKKPGASVKVSCKASGYTFTSYNMHWVRQAPGQGLEWIGAIYPGNGDTSYNQKFKGKATLTADKSTSTAYMELSSLRSEDTAVYYCARSTYYGGDWYFNVWGQGTLVTVSSGGGGSRTVAAPSVFIFPPSDEQLKSGTASVVCLLNNFYPREAKVQWKVDNALQSGNSQESVTEQDSKDSTYSLLSSLTLSKADYEKHKVYACEVTHQGLSSPVTKSFNRGEC
notes: NCI/NIH CH1-CK stabilized Fab format; the CH1 and CK domains form a heterodimer via a disulphide bond; also called anti-CD3×CD20 BsAb; Fab format (VL-VH-CH1/VL-VH-CK)
Consider B2, for which the binding result in experiment [1] is recorded as “binds”.

B3: QLB1005-0002 (bispecific antibody, human IgG1)
chain 1: EVQLVESGGGLVQPGGSLKLSCAASGFTFNTYAMNWVRQASGKGLEWVARIRSKYNNYATYYADSVKDRFTISRDDSKNTLYLQMNSLKTEDTAVYYCVRHGNFGNSYVSWFAYWGQGTLVTVSSGGGGSGGGGSGGGGSQAVVTQEPSLTVSPGGTVTLTCRSSTGAVTTSNYANWVQQKPGQAPRGLIGGTNKRAPGVPARFSGSLLGDKAALTLSGAQPEDEAEYYCALWYSNLWVFGTGTKVTVLGGGGSGGGGSGGGGSPKSCDKTHTCPPCPAPEAAGGPSVFLFPPKPKDTLMISRTPEVTCVVVDVSHEDPEVKFNWYVDGVEVHNAKTKPREEQYNSTYRVVSVLTVLHQDWLNGKEYKCKVSNKALGAPIEKTISKAKGQPREPQVCTLPPSRDELTKNQVSLSCAVKGFYPSDIAVEWESNGQPENNYKTTPPVLDSDGSFFLVSKLTVDKSRWQQGNVFSCSVMHEALHNHYTQKSLSLSPGK
chain 2: not shown
notes: scFv-Fc format with Knob-in-Hole and L234A, L235A (LALA) mutations in a human IgG1 Fc; The text also prints the name as QLB1005-02000; also called QLB1005-02000; QLB-1005-02000
Usually EC50 stands for the concentration that produces a half-maximal response. A higher EC50 goes with a need for much substance. The molecule B3 registered an EC50 in experiment [2] of 98.2 nM.
